Values quoted from earlier work, collected in article PMC9638026.

Target: TIRR (Homo sapiens) (UniProt Q9BRJ7)
Conditions: cited from earlier work

Chain of 53BP1 (Q12888 whole entry): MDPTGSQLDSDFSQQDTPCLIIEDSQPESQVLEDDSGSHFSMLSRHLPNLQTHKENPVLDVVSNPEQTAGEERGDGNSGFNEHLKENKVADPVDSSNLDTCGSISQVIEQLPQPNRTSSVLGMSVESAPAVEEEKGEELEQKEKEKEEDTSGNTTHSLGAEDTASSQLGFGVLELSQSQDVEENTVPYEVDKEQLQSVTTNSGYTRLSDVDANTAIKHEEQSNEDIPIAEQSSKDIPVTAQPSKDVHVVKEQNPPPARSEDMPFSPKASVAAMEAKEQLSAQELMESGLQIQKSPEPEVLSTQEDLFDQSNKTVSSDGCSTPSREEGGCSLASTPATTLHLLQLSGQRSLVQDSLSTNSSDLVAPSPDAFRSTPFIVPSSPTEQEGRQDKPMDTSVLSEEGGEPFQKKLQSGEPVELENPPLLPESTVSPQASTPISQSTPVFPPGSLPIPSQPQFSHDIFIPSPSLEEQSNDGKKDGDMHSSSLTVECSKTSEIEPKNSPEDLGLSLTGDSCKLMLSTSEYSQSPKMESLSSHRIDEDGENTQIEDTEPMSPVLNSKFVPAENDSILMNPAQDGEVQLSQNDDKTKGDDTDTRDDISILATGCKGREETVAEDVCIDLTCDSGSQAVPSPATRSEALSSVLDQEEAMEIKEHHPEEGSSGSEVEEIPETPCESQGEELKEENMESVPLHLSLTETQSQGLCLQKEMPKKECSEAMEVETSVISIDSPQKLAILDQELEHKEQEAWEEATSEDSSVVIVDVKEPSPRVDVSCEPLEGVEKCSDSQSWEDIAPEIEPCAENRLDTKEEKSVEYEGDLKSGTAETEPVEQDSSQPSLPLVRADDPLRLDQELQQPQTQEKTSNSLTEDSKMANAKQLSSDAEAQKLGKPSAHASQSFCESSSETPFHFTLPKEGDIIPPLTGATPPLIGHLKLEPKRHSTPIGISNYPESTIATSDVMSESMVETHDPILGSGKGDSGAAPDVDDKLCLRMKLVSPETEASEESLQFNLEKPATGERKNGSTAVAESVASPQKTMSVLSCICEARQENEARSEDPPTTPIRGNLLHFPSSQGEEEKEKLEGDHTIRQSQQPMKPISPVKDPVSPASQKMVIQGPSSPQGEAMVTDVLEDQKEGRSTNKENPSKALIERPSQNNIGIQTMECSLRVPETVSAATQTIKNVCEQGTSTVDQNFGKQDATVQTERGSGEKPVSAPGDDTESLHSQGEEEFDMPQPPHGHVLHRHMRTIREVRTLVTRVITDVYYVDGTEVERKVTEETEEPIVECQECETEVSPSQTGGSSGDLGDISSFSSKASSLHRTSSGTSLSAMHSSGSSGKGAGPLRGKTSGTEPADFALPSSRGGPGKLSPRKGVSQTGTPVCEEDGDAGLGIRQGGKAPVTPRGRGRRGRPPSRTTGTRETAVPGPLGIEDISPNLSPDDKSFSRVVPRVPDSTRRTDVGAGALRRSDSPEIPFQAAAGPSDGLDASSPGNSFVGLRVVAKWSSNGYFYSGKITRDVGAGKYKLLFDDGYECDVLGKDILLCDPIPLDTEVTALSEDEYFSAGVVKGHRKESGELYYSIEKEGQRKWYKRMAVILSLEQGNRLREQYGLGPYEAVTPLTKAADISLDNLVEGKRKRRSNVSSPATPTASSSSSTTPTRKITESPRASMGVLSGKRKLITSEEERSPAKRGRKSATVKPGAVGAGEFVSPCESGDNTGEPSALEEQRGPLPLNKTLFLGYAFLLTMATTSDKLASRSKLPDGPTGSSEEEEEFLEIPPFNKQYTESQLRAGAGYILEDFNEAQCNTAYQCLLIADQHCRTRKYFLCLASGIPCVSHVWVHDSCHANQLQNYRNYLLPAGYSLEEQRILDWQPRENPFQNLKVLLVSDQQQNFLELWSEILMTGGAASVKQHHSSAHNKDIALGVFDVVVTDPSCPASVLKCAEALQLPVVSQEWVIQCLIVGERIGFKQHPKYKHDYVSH
Chain of TIRR (Homo sapiens) (Q9BRJ7 whole entry): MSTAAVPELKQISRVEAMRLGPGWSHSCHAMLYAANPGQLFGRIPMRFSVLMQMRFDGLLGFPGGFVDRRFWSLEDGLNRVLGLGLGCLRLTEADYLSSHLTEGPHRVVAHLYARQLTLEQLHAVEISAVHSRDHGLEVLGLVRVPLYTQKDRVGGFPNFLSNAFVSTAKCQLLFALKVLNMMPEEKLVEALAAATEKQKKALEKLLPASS

## 53BP1 (from UniProt Q12888)
  Kd: 1000 nM
